We go through 2 substances from PMC6128628, “Impaired hepatic amyloid-beta degradation in Alzheimer’s disease” (PLoS ONE, 2018).

This series is described as follows: Degradation of fluorescein-labeled Aβ spiked into human liver homogenates (ELISA). It counts as in vitro ADME. The note with it: fluorescein-labeled peptide from DMSO stock diluted to 0.4 μg/ml, 5 μl added, 37°C, stopped on ice with protease inhibitor cocktail. The procedure:
Frozen liver (~500 mg) was ground into a powder in liquid nitrogen with a mortar and pestle then transferred to 8 ml sucrose lysis buffer (SLB: 20 mM HEPES, 1.5 mM magnesium chloride, 10 mM potassium chloride, 40 mM sucrose, 1 mM EDTA, 2% glycerol, 0.5% sodium deoxycholate, 1% Tergitol, pH 7.9) at 4°C. The tissue was then homogenized using an Omni TH tissue grinder (Kennesaw, GA) at 4°C. The homogenates were centrifuged at 15,000 x g in a Type 50.4 Ti rotor (Beckman Coulter, Brea, CA) for 20 min at 4°C and the supernatant was collected. Total protein was determined with Pierce’s Micro BCA protein assay kit (Thermo Fisher Scientific, Waltham, MA).
Lyophilized fluorescein-labeled Aβ40 and Aβ42 peptides (FAβ, rPeptide, Bogart, GA) were reconstituted in DMSO to 1 mg/ml and stored at 4°C [22]. For degradation experiments, the stock peptides were diluted to 0.4 μg/ml (1:2500) in sucrose lysis buffer (SLB), 5 μl of either FAβ40 or FAβ42 was added to the reaction mixtures and samples were incubated at 37°C for 1 h or 2 h (for ELISA and Western experiments). In addition, two 0 h incubations were included: one liver homogenate with 5 μl of FAβ as well as a negative control sample without FAβ. Reactions were terminated by placing homogenates on ice and by adding SLB with complete protease inhibitor cocktail (PIC, Roche, Mannheim, Germany). Reactions used for Western blots were stopped by 2XLDS sample buffer (Invitrogen) containing 100 mM dithiothreitol.
All 4 sample sets were analyzed in triplicate with Aβ40 and Aβ42 ELISAs (Invitrogen; catalog # KHB3481 and KHB3441 following the manufacturer’s instructions. Similar sets of samples were analyzed for FAβ by Western blot (as described below) with an anti-fluorescein antibody (Table 2) which binds to both to both free and bound fluorescein.

With “Aβ40: synthetic fluorescein-labeled amyloid beta 40 peptide (rPeptide), spiked into liver homogenates”, the “Aβ degraded within an hour, AD group” value (postmortem human liver homogenate from Alzheimer's disease subjects (n = 8) in sucrose lysis buffer pH 7.9, 1 h, Aβ40 ELISA in triplicate, p<0.05 vs ND) amounted to 23%. For the same substance, the “Aβ degraded within an hour, ND group” value (postmortem human liver homogenate from non-demented controls (n = 8) in sucrose lysis buffer pH 7.9, 1 h, Aβ40 ELISA in triplicate, p<0.05 vs AD) is on record as “Thirty-four”.

Take “Aβ42: synthetic fluorescein-labeled amyloid beta 42 peptide (rPeptide), spiked into liver homogenates”: for the setting “postmortem human liver homogenate from Alzheimer's disease subjects (n = 8) in sucrose lysis buffer pH 7.9, 2 h, Aβ42 ELISA in triplicate, p = 0.07 vs ND”, the “Aβ degraded within 2 hours, AD group” value is 80%. Besides, under “postmortem human liver homogenate from non-demented controls (n = 8) in sucrose lysis buffer pH 7.9, 2 h, Aβ42 ELISA in triplicate, p = 0.07 vs AD”, the “Aβ degraded within 2 hours, ND homogenates” value was found to be 94%.
